Laboratory results taken from the supplement of paper PMC9732359.
± gives the uncertainty stated by the source.

Test: protein stability index of a GFP-peptide fusion (yeast GPS) (PSI 1-4); higher = more stable; sorted into four equal gates, so the index is relative within each strain
Conditions: san1∆
Outline: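 Each library plasmid carries Cherry plus GFP with a tiled 17-residue yeast protein peptide fused downstream, and the pooled library was carried in yeast. Mid-log cultures in leucine-free medium were sorted into four equal gates by GFP/Cherry ratio. Reads from Illumina sequencing of PCR-amplified plasmids from each gate were assigned to strains by barcodes. Per peptide, the protein stability index was computed as the summed products of gate read frequency and gate number.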
With QEKQEQQEQDKKKKSNH [PRE6] the protein stability index was 2.55 ± 0.06. In the case of QEPSASQVKDSVTETES [SRP68], the protein stability index is reported as 3.14 ± 0.18. Sequence QESLVKLFTTNELMRWP [RPN5] has a protein stability index of 3.15 ± 0.12. In the case of QEVTNEAPFLTSGTSSE [GAL11], the protein stability index is reported as 3.42 ± 0.067. With QFKSKEVEKAHPIRLYT [PRP8] the protein stability index was 2.71 ± 0.063. In the case of QFSYLSSTLGIDLEDIK [PCI8], the protein stability index is reported as 1.71 ± 0.12. QFVETIVSKSIEMYVQE [RPN2] showed a protein stability index of 1.05 ± 0.11. With QFYVKRWKRFTIGAIFL [CDC53] the protein stability index was 3.08 ± 0.099. QGLNILEWLENPSNTPD [FAS1] gave a protein stability index of 3.41 ± 0.051. For QGNYPTTSYIKEQENIT [DPB4], the protein stability index was 3.02 ± 0.041. Sequence QGPIVADKNCAKLHRIS [PUP1] has a protein stability index of 2.79 ± 0.1. QIDHFKSMLSKPETLSI [SWI3] showed a protein stability index of 2.73 ± 0.065. Sequence QIIRRVKEMEPKQSDEY [SIR3] has a protein stability index of 3.37 ± 0.069. QIPQQLYQSLTPQQLQM [SNF5] showed a protein stability index of 2.57 ± 0.045. For QIQQQQQKQQQQQQQHQ [SNF5], the protein stability index was 2.93 ± 0.12. In the case of QKTQELNAKYQSLGLDD [ISW2], the protein stability index is reported as 3.17 ± 0.042. QKTRVKLLFDHDELDMN [ESC2] showed a protein stability index of 3.02 ± 0.076. In the case of QKTVNLKNIMKVSDPYV [RPN4], the protein stability index is reported as 2.48 ± 0.1. Sequence QLDSKLMVFNDDTKNQD [YGR119C/NUP57] has a protein stability index of 2.6 ± 0.057. QLFHSMSIVFGDKFSED [UBP6] showed a protein stability index of 1.14 ± 0.094. For QLGEWAGLGKIDREGNA [RPS12], the protein stability index was 3.4 ± 0.26. Work on QLIKQSIKNNVAMCFVI [SNU114] yielded a protein stability index of 1.24 ± 0.2. QLLEKAPIPIREDIDDP [BRR2] showed a protein stability index of 2.37 ± 0.088. In the case of QLNEERSRYRREIDALK [YIL149C/MLP2], the protein stability index is reported as 3.24 ± 0.045. In the case of QLNGNETFSTSAHQSPI [SNF2], the protein stability index is reported as 3.16 ± 0.072. For QLQGPQWMNEMVERWAN [SOH1], the protein stability index was 2.93 ± 0.099. Work on QLSNGIVVATEHNPSAH [COR1] yielded a protein stability index of 3.2 ± 0.059. QLTPQQQQLVNQMKVAP [GAL11] gave a protein stability index of 3.01 ± 0.061. Sequence QLVPIRLEFDQDRDRFF [SNF5] has a protein stability index of 2.98 ± 0.24. QLWLNSSGDFDDNNNNN [GRR1] gave a protein stability index of 3.17 ± 0.1. Work on QLYFQKNGAQDLVLQIL [RRI2] yielded a protein stability index of 2.32 ± 0.097. In the case of QMAVHIATDGGRICRPL [RET1], the protein stability index is reported as 2.78 ± 0.1. QNAKLLANLIRDALRNI [RRP6] gave a protein stability index of 2.36 ± 0.084. QNFENDFSLRYISNLLY [REC8] gave a protein stability index of 2.02 ± 0.11. QNNLPPNFFLTLISENW [BRR2] showed a protein stability index of 2.91 ± 0.071. In the case of QNQGGAQAPFDIDDLAF [ROX3], the protein stability index is reported as 3.4 ± 0.11. QNRSLQEHNIQDSNVMP [SNF2] gave a protein stability index of 2.92 ± 0.04. Sequence QNSKFLKVNVTLDNPLL [YJL039C/NUP192] has a protein stability index of 2.91 ± 0.058. Sequence QPEVAVKAAINFSNVTD [YIL149C/MLP2] has a protein stability index of 2.2 ± 0.071. QPKLNPMASSSSFGSES [SWI1] showed a protein stability index of 3.12 ± 0.048. Sequence QPKRNLSRYVKWPEYVR [RPL8A] has a protein stability index of 3.06 ± 0.06. For QPNEISFKYLSNNDEDD [RGR1], the protein stability index was 1.88 ± 0.072. Work on QPQHPHYVSTSKISQMA [YLR018C/POM34] yielded a protein stability index of 2.34 ± 0.048. In the case of QQAQSFVGKKNTIGSVH [SSN3], the protein stability index is reported as 3.1 ± 0.081. In the case of QQEAKYRNNEPAGFTHK [YDL088C/ASM4], the protein stability index is reported as 2.6 ± 0.059. With QQENSKSGKRKPNIILD [RPC31] the protein stability index was 2.64 ± 0.089. In the case of QQFNLHEILSEPAIEEE [MED1], the protein stability index is reported as 2.98 ± 0.17. Work on QQGQNMSEQQWREQLRN [ROX3] yielded a protein stability index of 2.42 ± 0.086. For QQLDSFNQFVDYTLQDI [RPB2], the protein stability index was 2.75 ± 0.052. QQLLKGLSLSFSKKLDL [DSN1] showed a protein stability index of 2.74 ± 0.069. Sequence QQLLPAPQLFPYGSFHQ [DSN1] has a protein stability index of 2.72 ± 0.072. With QQLVDSEKRLDHFIHLR [SNF12] the protein stability index was 2.56 ± 0.078. In the case of QQPNPLHGLTPTAKDVE [GAL11], the protein stability index is reported as 3.15 ± 0.06. In the case of QQQLQQNSKEKNGLGLN [MED2], the protein stability index is reported as 2.42 ± 0.26. QQQPQPQYNMNMGMNNM [PGD1] showed a protein stability index of 3.29 ± 0.041. Sequence QQQQQQQQQTSPPPQTH [SNF5] has a protein stability index of 2.799 ± 0.01. In the case of QRDRHTLAYDRGHRIRR [PRP8], the protein stability index is reported as 2.83 ± 0.095. QRESQIGAAELNENARE [SNF12] showed a protein stability index of 2.93 ± 0.12. Sequence QRGEDDLTFKLADILKA [RPO21] has a protein stability index of 2.45 ± 0.066. QRGKMHGLKQLRDSLAD [NUT2] gave a protein stability index of 1.48 ± 0.071. Sequence QRIIKELSIRFPQYKLT [ARP7] has a protein stability index of 2.12 ± 0.081. QRKTNGASNGDDSNGGN [BRN1] gave a protein stability index of 3.71 ± 0.17. QRMHAIHEIDERLAKVN [NNF1] showed a protein stability index of 2.42 ± 0.085. For QRQLLVQQQQQQQLRNQ [SNF5], the protein stability index was 2.44 ± 0.19. QRVRNMRELGLIQSTEF [YOR098C/NUP1] gave a protein stability index of 2.84 ± 0.26. QSISGTLELSAQFRVPR [SWP82] showed a protein stability index of 2.52 ± 0.084. Work on QSNEDTFLPSYMKFSNK [RRI2] yielded a protein stability index of 3.17 ± 0.052. QSRVPTSLTSIKWENAF [PRP8] gave a protein stability index of 3.44 ± 0.072. For QSSEDVITIKSRIRVKI [RPB7], the protein stability index was 2.51 ± 0.078. QSTPQPDDMVEINSVGN [ITC1] showed a protein stability index of 3.04 ± 0.13. Sequence QTFNFDSFENYFNQLKP [RPN12] has a protein stability index of 3.05 ± 0.052. Sequence QTIEMITQIVEKDFCTS [SRB8] has a protein stability index of 2.93 ± 0.047. QTIPIQIYGFEGLNQRN [YGR119C/NUP57] gave a protein stability index of 2.52 ± 0.16. For QTLGLESFTEELSNELS [MED1], the protein stability index was 3.06 ± 0.05. QTLSSHLEALQPLFSTV [PGD1] showed a protein stability index of 2.2 ± 0.052. QTRAKLLDNEIRIFRSE [RPT5] gave a protein stability index of 3.22 ± 0.051. In the case of QTVRLIKDLQRAINKVL [SIR2], the protein stability index is reported as 1.22 ± 0.11. With QVENMKWDFAKDIKGYG [PRE4] the protein stability index was 1.41 ± 0.16. With QVILPMSPNHGTFGGDG [FAS2] the protein stability index was 3.18 ± 0.061. With QVNIRFLLHNSEIIDTN [SRB8] the protein stability index was 2.79 ± 0.055. Work on QVPLQQTQAIAQQQQLS [YGR119C/NUP57] yielded a protein stability index of 2.15 ± 0.077. With QVPQVRSMSGQPPTNVQ [SNF5] the protein stability index was 3.06 ± 0.037. QVRKDLGNVIVPNILSL [NUT1] gave a protein stability index of 2.46 ± 0.093. Sequence QWLIMLGICTHLGCVPI [RIP1] has a protein stability index of 1.29 ± 0.14. For QWMVSLFNNHLNGILAD [SNF2], the protein stability index was 1.37 ± 0.14. Sequence QWRYLYDTQLKVSPEEL [ARP7] has a protein stability index of 2.08 ± 0.056. For QYESQAPDGSASISLPN [SWP82], the protein stability index was 2.92 ± 0.038. QYILQIVSFIVNCFHED [YJL039C/NUP192] gave a protein stability index of 2.18 ± 0.077. In the case of QYQLLYNLKNDILTNLE [SWI1], the protein stability index is reported as 1.74 ± 0.077. In the case of QYSTRHDAPRGLFPFES [SWI3], the protein stability index is reported as 3.2 ± 0.077. RADIVRNIILEARFDVL [ISW2] showed a protein stability index of 2.09 ± 0.11. For RADVEDESNDIDMIADE [RPC37], the protein stability index was 2.8 ± 0.08. In the case of RAGMTHEDEKLIPTIFR [PRP8], the protein stability index is reported as 3.15 ± 0.049. In the case of RAIYSYLSGAIPNQEVL [YDL116W/NUP84], the protein stability index is reported as 2.5 ± 0.089. Sequence RAKAEAAEFRYKYGYDM [SCL1] has a protein stability index of 2.71 ± 0.058. Work on RAKAMKFADGFLIHSGQ [RPS3] yielded a protein stability index of 3.13 ± 0.061. RALFRQLKRWYWQFNGV [RMP1] showed a protein stability index of 1.19 ± 0.18. In the case of RALSIFSPDGHIFQVEY [PRE6], the protein stability index is reported as 3.04 ± 0.032. Sequence RAPKANGALDPKMGVSS [RPO31] has a protein stability index of 3.05 ± 0.093. RAQLENEIEGKNEETPQ [RPC25] gave a protein stability index of 2.47 ± 0.2. For RASLVPGTVLILLAGRF [RPL6A], the protein stability index was 1.78 ± 0.1.

Same assay, conditions: ubr1∆
QEKQEQQEQDKKKKSNH [PRE6] showed a protein stability index of 1.65 ± 0.04.
